Where “and” joins values, the source holds several entries; their conditions need not be identical. Equal entries are not always repeated. Ends that are not written are not given here. * marks the point of attachment. Palmitoyl = CCCCCCCCCCCCCCCC(=O)*
How the values were obtained:
[1] = target: T1, recombinant SERCA1a (recS1a) (Oryctolagus cuniculus, UniProt P04191); experiment: Steady-state ATPase activity, enzyme-coupled assay; format: biochemical, rabbit (expressed in S. cerevisiae)
T1 construct: BAD (biotin acceptor domain) (C, cleaved yes); made in house; host or cells: Saccharomyces cerevisiae
T1 sequence (P04191 1-994 isoform P04191-2): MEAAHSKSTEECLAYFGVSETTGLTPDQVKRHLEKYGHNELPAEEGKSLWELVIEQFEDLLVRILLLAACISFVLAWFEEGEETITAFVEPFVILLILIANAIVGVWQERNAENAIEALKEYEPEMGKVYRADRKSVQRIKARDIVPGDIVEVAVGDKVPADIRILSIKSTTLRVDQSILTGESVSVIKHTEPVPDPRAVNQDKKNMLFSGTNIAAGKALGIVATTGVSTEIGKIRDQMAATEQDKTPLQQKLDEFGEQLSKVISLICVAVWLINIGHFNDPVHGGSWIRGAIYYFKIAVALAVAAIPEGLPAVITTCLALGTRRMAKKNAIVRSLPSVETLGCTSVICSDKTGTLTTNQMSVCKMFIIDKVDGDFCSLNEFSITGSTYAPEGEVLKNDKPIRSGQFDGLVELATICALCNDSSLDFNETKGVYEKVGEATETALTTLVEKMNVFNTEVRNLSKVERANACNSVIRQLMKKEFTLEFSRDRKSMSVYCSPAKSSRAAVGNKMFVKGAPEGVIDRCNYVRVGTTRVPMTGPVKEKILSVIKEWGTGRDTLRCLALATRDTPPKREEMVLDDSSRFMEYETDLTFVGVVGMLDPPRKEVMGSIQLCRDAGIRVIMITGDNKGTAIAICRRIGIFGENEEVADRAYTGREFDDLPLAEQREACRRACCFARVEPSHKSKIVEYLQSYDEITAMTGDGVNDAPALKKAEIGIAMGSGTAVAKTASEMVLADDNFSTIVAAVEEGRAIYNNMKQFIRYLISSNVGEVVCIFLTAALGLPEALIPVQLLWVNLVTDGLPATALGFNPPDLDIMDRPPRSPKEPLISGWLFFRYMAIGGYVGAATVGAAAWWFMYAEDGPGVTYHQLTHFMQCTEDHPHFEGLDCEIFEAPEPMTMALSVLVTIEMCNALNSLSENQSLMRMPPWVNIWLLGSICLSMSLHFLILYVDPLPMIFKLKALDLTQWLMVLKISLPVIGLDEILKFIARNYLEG
Description: resuspended in a large volume of pure water and lyophilized to evaporate most of the TFA. The rinsed powder was then suspended in presence of 10 mM HCl to exchange the anionic residual TFA that may interact with the positive charges of the peptide for chloride. This suspension was lyophilized again.
Three additional cycles of – dissolving in pure water / lyophilisation – will allow to eliminate traces of TFA and to get back to a pH compatible with functional tests. For final solubilisation of SLN in detergent, powder was then dissolved in 50% TFE and an amount of detergent to reach a 100:1 mole:mole detergent:SLN ratio. Here, we used C12E8 as it is fully compatible with functional characterization of SERCA1a 23. This suspension was then lyophilized again to evaporate TFE.
Sarcolipins (Palm-SLN or SLN) were finally resuspended at 0.8 mg/mL (about 200 µM) in a 10 mM potassium phosphate buffer pH 7.4, in the presence of 2.5 mg/mL C12E8.
Expression and Purification of recombinant SERCA1a (recS1a)
The yeast expression plasmid pYeDP60-SERCA1a-BAD (WT) and expression in Saccharomyces cerevisiae was described previously 30. Yeast membranes were solubilized by DDM for subsequent purification of recombinant Ca2+-ATPase by Streptavidin affinity chromatography 31. Purified recombinant SERCA1a was recovered in a buffer containing 50 mM MOPS-Tris pH7, 100 mM KCl, 5 mM MgCl2, 2.1 mM CaCl2, 40 % glycerol (v/v) and 0.5 mg/mL DDM, together with some thrombin remaining from the elution procedure. The protein concentration in the purified fraction was in the 0.05 to 0.15 mg/mL range depending on the batch. […]
Steady-state ATPase activity measurements
Measurements were performed using classical enzyme coupled assay. We measured the rate of NADH oxidation in the presence of 0.1 mg/mL lactate deshydrogenase, 0.05 mg/mL pyruvate kinase, 1 mM phosphoenolpyruvate, 0.25 mM NADH (protocol was adapted from 22) and in the additional presence of 2 mg/mL C12E8 to limit time-dependent inactivation of the purified SERCA1a 20,23.

[2] = target: T1, recombinant SERCA1a (recS1a); experiment: Mg.ATP binding by tryptophan fluorescence; parameters: species or system rabbit (expressed in S. cerevisiae)
Description: Intrinsic fluorescence of SERCA1a was measured with a SPEX Fluorolog spectrofluorometer (Horiba/Jobin–Yvon, Longjumeau, France) as described before. Briefly, signals were monitored with excitation and emission wavelength set at 295 and 320 nm, with bandwidths of 2 and 10 nm, respectively. Changes in tryptophan fluorescence were recorded at 20 °C after dilution of protein samples to a final concentration of about 6–7.5 µg/mL into a medium containing 50 mM MOPS-Tris pH 7, 100 mM KCl, 5 mM MgCl2, 20% glycerol (v/v) and 10 mg/mL DDM. In presence of SLN, recS1a and SLN were first mixed together and incubate for 1 h on ice before measurement. In absence of SLN, recS1a is supplemented with 0.07 mg/mL C12E8 to compensate the detergent present with SLN. The Maxchelator program was used for estimating [Ca^2+]free[59] (program available at https://somapp.ucdmc.ucdavis.edu/pharmacology/bers/maxchelator/downloads.htm). The dissociation constant of the Ca.EGTA complex was taken to be 0.4 µM at pH7 and was assumed to be the same in the presence of glycerol.

pSLN: chemically synthesized S-palmitoylated rabbit sarcolipin, 31-residue single-spanning membrane peptide, palmitoylated on Cys9 (MERSTRELC(Palmitoyl)LNFTVVLITVILIWLLVRSYQY; UniProt P42532 1-31, looked up)
maximal turnover ([1]; recS1a + Palm-SLN, recS1a alone 2.88 +/- 0.12): 2.74 +/- 0.04 µmol ATP/mg/min
affinity for calcium and maximum turn-over ([1]; recS1a in absence or presence of pSLN, enzyme-coupled assay): no difference was observed
Ca1/2 (ATPase activity), recS1a + pSLN ([1]; steady state, NADH-coupled assay, 2 mg/mL C12E8, three independent experiments, p=0.248): 0.13 +/- 0.06 µM
fluorescence change on 0.3 µM Mg.ATP, recS1a + pSLN ([2]; 0.3 µM Mg.ATP, increase of fluorescence in absence of pSLN): no fluorescence intensity variation
fluorescence change on 300 µM Mg.ATP, recS1a + pSLN ([2]; 300 µM Mg.ATP, decrease of fluorescence in absence of pSLN): increase of signal
Mg-ATP1/2 (affinity for Mg.ATP), recS1a + pSLN ([2]; calcium-deprived (2 mM EGTA), pH 7, 20 °C, DDM, 20% glycerol, three independent experiments, p = 0.045): 11 µM and 11.0 ± 1 µM
nH for Mg.ATP, recS1a + pSLN ([2]; three independent experiments): 0.95 ± 0.06

From article PMC7810697, “Sarcolipin alters SERCA1a interdomain communication by impairing binding of both calcium and ATP” (Scientific Reports, 2021)
